Data reported in patent publication US8409836B2, “Treatment of cellulosic material and enzymes useful therein” (Roal Oy, priority 2005, dated 2013).

Legend:
Format in all cases: biochemical
[1] = Thermal stability of purified β-glucosidase; conditions: 0.1 mg/ml BSA, pH 5.0, 60 min, 4-nitrophenyl-β-D-glucopyranoside
Description: Thermal stability of the purified β-glucosidase was determined at different temperatures. The reaction was performed in the presence of 0.1 mg/ml BSA at pH 5.0 for 60 min using 4-nitrophenyl-β-D-glucopyranoside as substrate. A. thermophilum βG—101 was stable up to 70° C. The Aspergillus reference enzyme (Novozym 188) retained 100% of activity up to 60°.
Thermal stability of the purified β-glucosidase was determined at different temperatures. The reaction was performed in the presence of 0.1 mg/ml BSA at pH 5.0 for 60 min using 4-nitrophenyl-β-D-glucopyranoside as substrate. T. aurantiacus βG—81 was stable up to 75° C. The Aspergillus reference enzyme (Novozym 188) retained 100% of activity up to 60° C.

[2] = β-glucosidase activity on 4-nitrophenyl-β-D-glucopyranoside; conditions: purified β-glucosidase, 50° C.
Description: Acremonium Thermophilum ALKO4245 was grown as described in Example 1. The pure β-glucosidase was obtained by sequential purification with hydrophobic interaction and anion exchange chromatography followed by gel filtration. The β-glucosidase activity of the fractions collected during purification was determined using 4-nitrophenyl-β-D-glucopyranoside as substrate (Bailey and Linko, 1990). Protein content was measured by BioRad Assay Kit (Bio-Rad Laboratories) using bovine serum albumine as standard.
Thermoascus aurantiacus ALKO4242 was grown as described in Example 1. The pure β-glucosidase was obtained by sequential purification with hydrophobic interaction, anion and cation exchange chromatography followed by gel filtration. The β-glucosidase activity of the fractions collected during purification was determined using 4-nitrophenyl-β-D-glucopyranoside as substrate (Bailey and Linko, 1990). Protein content was measured by BioRad Assay Kit (Bio-Rad Laboratories) using bovine serum albumine as standard.

[3] = Temperature optimum of heterologously produced β-glucosidases; conditions: temperature range 50-85° C., 60 min
Description: (§1) The pH optimum of the heterologously produced β-glucosidases was determined in the universal McIlvaine's buffer within a pH range of 3.0-8.0 using 4-nitrophenyl-β-D-glucopyranoside as substrate. The pH optima for the Acremonium βG—101, Chaetomium βG—76, and Thermoascus βG—81 are pH 4.5, 5.5, and 4.5, respectively (FIG. 7 A). The optimal temperature for enzymatic activity of these β-glucosidases was determined at the temperature range of 50-85° C. as described above. The highest activity of the enzymes was determined to be at 70° C., 65° C., and 75° C. for the Acremonium βG—101/Cel3A, Chaetomium βG—76/Cel3A, and Thermoascus βG—81/Cel3A, respectively (FIG. 7 B).

[4] = pH optimum of heterologously produced β-glucosidases; conditions: McIlvaine's buffer, pH range 3.0-8.0, 4-nitrophenyl-β-D-glucopyranoside
Description: as §1

B1: At βG_101: beta-glucosidase of Acremonium thermophilum ALKO4245, gene At cel3A, amino acid SEQ ID NO: 24 (protein)
chain: MRQALVSLALLASSPVSAARELATSDPFYPSPWMNPEANGWEDAYAKAKAFVSQLTLLEKVNLTTGIGWQGGQCVGNVGSVPRLGLRSLCMQDSPVGIRFGDYVSVFPSGQTTAATFDKGLMNRRGNAMGQEHKGKGVNVLLGPVAGPIGRTPEGGRNWEGFSPDPVLTGIALAETIKGIQDAGVIACAKHFIANEQEHFRQSGEAQGYGFDISESLSSNIDDKTMHELYLWPFADGVRAGVGAIMCSYNQINNSYGCQNSKTLNNLLKNELGFQGFVMSDWQAQHTGAASAVAGLDMTMPGDTSFNTGLSYWGTNLTLAVLNGTVPEYRIDDMVMRIMAAFFKTGQTLDLPPINFDSWTTDTFGPLHFAVNEDRQQINWHVNVQDNHGSLIREIAAKGTVLLKNTGSLPLNKPKFLVVVGDDAGPNPAGPNACPDRGCDVGTLGMAWGSGSANFPYLITPDAALQAQAIKDGTRYESVLSNYQLDQTKALVTQANATAIVFVNADSGEGYINVDGNEGDRKNLTLWHDGDALIKSVAGWNPNTIVVIHSTGPVLVTDWYDHPNITAILWAGVPGQESGNAITDVLYGKVNPSGRSPFTWGPTRESYGTDVLYTPNNGKGAPQQAFSEGVFIDYRHFDRTNASVIYEFGHGLSYTTFQYSNIQVVKSNAGAYKPTTGTTIPAPTFGSFSKDLKDYLFPSDQFRYITQYIYPYLNSTDPAKASLDPHYGKTAAEFLPPHALDSNPQPLLRSSGKNEPGGNRQLYDILYTVTADITNTGSIVGAEVPQLYVSLGGPDDPKVVLRGFDRIRIDPGKTAQFRVTLTRRDLSNWDPAIQDWVISKYPKKVYIGRSSRKLELSADLA
Thermal stability: temperature up to which stable / 100% of activity retained [1]: up to 70 °C
Specific activity on 4-nitrophenyl-β-D-glucopyranoside [2]: 1100 nkat/mg
Temperature of highest activity [3]: 70 °C
pH optimum [4]: 4.5
